Data taken from patent publication US20160367497A1, “METHODS AND COMPOSITIONS FOR TREATING NEUROPATHIES” (Washington University, priority 2007, published 2016).

B1: NmPRT: nicotinamide phosphoribosyltransferase (protein, UniProt P43490 1-491, looked up)
Nicotinamide …: MNPAAEAEFNILLATDSYKVTHYKQYPPNTSKVYSYFECREKKTENSKLRKVKYEETVFYGLQYILNKYLKGKVVTKEKIQEAKDVYKEHFQDDVFNEKGWNYILEKYDGHLPIEIKAVPEGFVIPRGNVLFTVENTDPECYWLTNWIETILVQSWYPITVATNSREQKKILAKYLLETSGNLDGLEYKLHDFGYRGVSSQETAGIGASAHLVNFKGTDTVAGLALIKKYYGTKDPVPGYSVPAAEHSTITAWGKDHEKDAFEHIVTQFSSVPVSVVSDSYDIYNACEKIWGEDLRHLIVSRSTQAPLIIRPDSGNPLDTVLKVLEILGKKFPVTENSKGYKLLPPYLRVIQGDGVDINTLQEIVEGMKQKMWSIENIAFGSGGGLLQKLTRDLLNCSFKCSYVVTNGLGINVFKDPVADPNKRSKKGRLSLHRTPAGNFVTLEEGKGDLEEYGQDLLHTVFKNGKVTKSYSFDEIRKNAQLNIELEAAHH
B2: NMNAT1: nicotinamide mononucleotide adenylyltransferase1, lentivirus expressed (protein, UniProt Q9EPA7 1-285, looked up)
Nicotinamide/nicotinic acid …: MDSSKKTEVVLLACGSFNPITNMHLRLFELAKDYMHATGKYSVIKGIISPVGDAYKKKGLIPAHHRIIMAELATKNSHWVEVDTWESLQKEWVETVKVLRYHQEKLATGSCSYPQSSPALEKPGRKRKWADQKQDSSPQKPQEPKPTGVPKVKLLCGADLLESFSVPNLWKMEDITQIVANFGLICITRAGSDAQKFIYESDVLWRHQSNIHLVNEWITNDISSTKIRRALRRGQSIRYLVPDLVQEYIEKHELYNTESEGRNAGVTLAPLQRNAAEAKHNHSTL

Experiments:
[1] = tested on: DRG neuronal explant cultures; experiment: in vitro Wallerian degeneration assay, DRG explant neurite transection; type: cell-based, mouse; details: lentivirus-mediated expression in DRG neurons
Description: (§1) To identify the mechanism of delayed axonal degeneration mediated by the Wlds protein, we employed an in-vitro Wallerian degeneration model. Primary DRG explant neurons were infected with lentivirus expressing the appropriate proteins, and axons were injured by either removal of the neuronal cell body (transection) or growth in vincristine (toxic).
Mouse DRG explants from E12.5 embryos were cultured in the presence of 1 nM nerve growth factor. Non-neuronal cells were removed from the cultures by adding 5-fluorouracil to the culture medium. Transection of neurites was performed at 10-20 DIV using an 18-gauge needle to remove the neuronal cell bodies. […]
Quantitative analysis of axonal degeneration was performed as previously described (Zhai, et al., Neuron 39:217-25, 2003). […] Axons with a fragmented, non-refractile appearance were designated as “degenerated.” At each time point, at least 200 singly distinguishable axons were blindly scored from several randomly taken images of each culture. […] For calculations of neurite-covered area, digitally captured images from quadruplicate samples of two independent experiments were analyzed using analysis 3.1 software (Soft Imaging System, Lakewood, Colo.).
Cell culture, in vitro axotomy, and quantification of axonal degeneration. […] Quantitative analysis of neurite degeneration was performed.

[2] = tested on: DRG neuronal explant; experiment: vincristine-induced axonal degeneration in DRG neuronal explants; type: cell-based, mouse; details: 0.5 μM vincristine for up to 9 d; lentiviral expression
Description: as §1
Quantitative analysis of axonal degeneration was performed as previously described (Zhai, et al., Neuron 39:217-25, 2003). Briefly, the cultures were examined using phase contrast microscopy at the indicated times. Axons with a fragmented, non-refractile appearance were designated as “degenerated.” At each time point, at least 200 singly distinguishable axons were blindly scored from several randomly taken images of each culture. Each condition was tested in triplicate explants in each experiment. Results were obtained from 2-4 independent experiments for each condition. Statistical analysis was performed by Student's T test. For calculations of neurite-covered area, digitally captured images from quadruplicate samples of two independent experiments were analyzed using analysis 3.1 software (Soft Imaging System, Lakewood, Colo.). […]

Row | Molecule | axonal/neurite degeneration after transection [1] | axon length and refractility [2]
1 | B1 | shows axonal protection | 
2 | B2 |  | maintained their original length and refractility
